Measurements from PMC4258549.

B1: extracellular adherence protein (Eap), recombinant, full-length, untagged (natural protein)
chain: AAKPLDKSSSTLHHGHSNIQIPYTITVNGTSQNILSSLTFNKNQNISYKDIENKVKSVLYFNRGISDIDLRLSKQAEYTVHFKNGTKRVIDLKSGIYTADLINTSDIKAISVNVDTKKQPKDKAKANVQVPYTITVNGTSQNILSNLTFNKNQNISYKDLEGKVKSVLESNRGITDVDLRLSKQAKYTVNFKNGTKKVIDLKSGIYTANLINSSDIKSININVDTKKHIENKAKRNYQVPYSINLNGTSTNILSNLSFSNKPWTNYKNLTSQIKSVLKHDRGISEQDLKYAKKAYYTVYFKNGGKRILQLNSKNYTANLVHAKDVKRIEITVKTGTKAKADRYVPYTIAVNGTSTPILSKLKISNKQLISYKYLNDKVKSVLKSERGISDLDLKFAKQAKYTVYFKNGKKQVVNLKSDIFTPNLFSAKDIKKIDIDVKQYTKSKKK
B2: complement component C2, recombinant, full-length (natural protein)
chain: APSCPQNVNISGGTFTLSHGWAPGSLLTYSCPQGLYPSPASRLCKSSGQWQTPGATRSLSKAVCKPVRCPAPVSFENGIYTPRLGSYPVGGNVSFECEDGFILRGSPVRQCRPNGMWDGETAVCDNGAGHCPNPGISLGAVRTGFRFGHGDKVRYRCSSNLVLTGSSERECQGNGVWSGTEPICRQPYSYDFPEDVAPALGTSFSHMLGATNPTQKTKESLGRKIQIQRSGHLNLYLLLDCSQSVSENDFLIFKESASLMVDRIFSFEINVSVAIITFASEPKVLMSVLNDNSRDMTEVISSLENANYKDHENGTGTNTYAALNSVYLMMNNQMRLLGMETMAWQEIRHAIILLTDGKSNMGGSPKTAVDHIREILNINQKRNDYLDIYAIGVGKLDVDWRELNELGSKKDGERHAFILQDTKALHQVFEHMLDVSKLTDTICGVGNMSANASDQERTPWHVTIKPKSQETCRGALISDQWVLTAAHCFRDGNDHSLWRVNVGDPKSQWGKEFLIEKAVISPGFDVFAKKNQGILEFYGDDIALLKLAQKVKMSTHARPICLPCTMEANLALRRPQGSTCRDHENELLNKQSVPAHFVALNGSKLNINLKMGVEWTSCAEVVSQEKTMFPNLTDVREVVTDQFLCSGTQEDESPCKGESGGAVFLERRFRFFQVGLVSWGLYNPCLGSADKNSRKRAPRSKVPPPRDFHINLFRMQPWLRQHLGDVLNFLPL

Assays:
biotinylated C4b (human) [1] = assay: SPR
biotinylated C4b (human) [2] = assay: AlphaScreen or HTRF
[3] = biological target: complement component C4b (human); assay: AUC
biotinylated C4b (human) [4] = assay: AlphaScreen or HTRF; remark: listed apart in the source

Binder | IC50 (biotinylated C4b (human) [1]) | Kd (biotinylated C4b (human) [2]) | stoichiometry N [3] | IC50 (biotinylated C4b (human) [4]) | IC50 (biotinylated C4b (human) [2])
B1 | 50 nM | 185 nM | 1 | – | –
B2 | – | – | – | 180 nM | 460 nM
